{
  "source": "paper PMC10104018",
  "key": {"[1]": {"biological_target": "T1, RGG-GFP-RGG, TXTL-expressed (UniProt D0PV95 1-168)", "T1 chain": "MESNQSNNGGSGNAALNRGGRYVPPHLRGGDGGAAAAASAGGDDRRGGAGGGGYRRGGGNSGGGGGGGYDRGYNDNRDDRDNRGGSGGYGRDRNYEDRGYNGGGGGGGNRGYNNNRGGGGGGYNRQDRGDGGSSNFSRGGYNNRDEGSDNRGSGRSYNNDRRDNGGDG", "assay": "confocal fluorescence co-localization to condensates"}, "[2]": {"biological_target": "T2, RGG-GFP-RGG (His), purified (UniProt D0PV95 1-168)", "T2 chain": "T1 chain", "assay": "confocal fluorescence co-localization to condensates"}},
  "data": [
    {"binder": "UUUUUUUUUUUUUUU (ssRNA)", "note": "[Cy5-U15]", "values": [
      {"measurement": "binding result", "setting": "[1]", "result": "binds"},
      {"measurement": "binding result", "setting": "[2]", "result": "binds"}
    ]}
  ]
}
